{"source": "the RNAGym collection of RNA variant scans (doi:10.7554/elife.90254)", "parents": {"B1": {"name": "LINE1-full (parent)", "chain": "UACGUAGGUGGUUUUCCCCUGAUAGUGCUAAGGGGGCCUGGAAGUUUGGACUGGGCAGAGCUCAACACAGCGUGGCAAAGUGGCUGUGGCUAGACUGCCUCUCUGGAUUCCUCGUCACUCAGCAGGGCAUCUCUGAGAGAAAUGCC"}}, "data": [{"variants_of": "B1", "experiment": "self-cleavage, relative activity (ratio to wild type); higher = more cleavage; in vitro, sequencing; the parent is a self-cleaving ribozyme", "values": [{"variant": "A64U A142U", "self-cleavage": 0.46}, {"variant": "A64U A142G", "self-cleavage": 0.47}, {"variant": "U62C A77G", "self-cleavage": 0.08}, {"variant": "U62C A77U", "self-cleavage": 0.03}, {"variant": "C63U U91C", "self-cleavage": 0.18}, {"variant": "C63U U91G", "self-cleavage": 0.04}, {"variant": "A65C A140G", "self-cleavage": 0.05}, {"variant": "C63U U112C", "self-cleavage": 0.29}, {"variant": "U62C U134A", "self-cleavage": 0.05}, {"variant": "U62C U134C", "self-cleavage": 0.05}, {"variant": "A64U C110A", "self-cleavage": 0.44}, {"variant": "U62G U130C", "self-cleavage": 0.11}, {"variant": "U62A U134A", "self-cleavage": 0.07}, {"variant": "A64U A94G", "self-cleavage": 0.09}, {"variant": "A64U A94C", "self-cleavage": 0.05}, {"variant": "A64U U115C", "self-cleavage": 0.63}, {"variant": "U62C C118U", "self-cleavage": 0.03}, {"variant": "A64C C101U", "self-cleavage": 0.28}, {"variant": "C63U U119G", "self-cleavage": 0.37}, {"variant": "U62G U108C", "self-cleavage": 0.07}, {"variant": "A65C A141G", "self-cleavage": 0.02}, {"variant": "A65G A136G", "self-cleavage": 0.07}, {"variant": "A65G A78G", "self-cleavage": 0.04}, {"variant": "A65G A94U", "self-cleavage": 0.05}, {"variant": "A65U A121G", "self-cleavage": 0.21}, {"variant": "A65G U104C", "self-cleavage": 0.01}, {"variant": "U62G A77G", "self-cleavage": 0.07}, {"variant": "A65G U130C", "self-cleavage": 0.1}, {"variant": "C63U A69G", "self-cleavage": 0.17}, {"variant": "A64U U87C", "self-cleavage": 0.12}, {"variant": "U62C G89A", "self-cleavage": 0.01}, {"variant": "A64G U112A", "self-cleavage": 0.16}, {"variant": "U62C A64C", "self-cleavage": 0}, {"variant": "U62C A64U", "self-cleavage": 0.05}, {"variant": "U62C A121G", "self-cleavage": 0.1}, {"variant": "U62C A121U", "self-cleavage": 0.04}, {"variant": "A65G G93A", "self-cleavage": 0.02}, {"variant": "A64C A138G", "self-cleavage": 0.31}, {"variant": "A64G G125U", "self-cleavage": 0.33}, {"variant": "U62C G122A", "self-cleavage": 0.04}, {"variant": "U62C G122C", "self-cleavage": 0.03}, {"variant": "C63A A121U", "self-cleavage": 0}, {"variant": "A64G A67U", "self-cleavage": 0.11}, {"variant": "A64G A67G", "self-cleavage": 0.09}, {"variant": "A64G A92G", "self-cleavage": 0.14}, {"variant": "A64U A136G", "self-cleavage": 0.71}, {"variant": "A64U A136U", "self-cleavage": 0.45}, {"variant": "A65G U100G", "self-cleavage": 0}, {"variant": "A64G C76U", "self-cleavage": 0.13}, {"variant": "U62C U115A", "self-cleavage": 0.04}, {"variant": "U62C U115C", "self-cleavage": 0.1}, {"variant": "U62G A138G", "self-cleavage": 0.09}, {"variant": "A65U A138U", "self-cleavage": 0.16}, {"variant": "U62C G70U", "self-cleavage": 0}, {"variant": "C63A A94G", "self-cleavage": 0.08}, {"variant": "A64C U115C", "self-cleavage": 0.47}, {"variant": "A64C U115A", "self-cleavage": 0.38}, {"variant": "A65G A138U", "self-cleavage": 0.08}, {"variant": "A64C U132C", "self-cleavage": 0.34}, {"variant": "A64U G93U", "self-cleavage": 0.05}, {"variant": "A64U A79G", "self-cleavage": 0.4}, {"variant": "C63A U81A", "self-cleavage": 0.06}, {"variant": "A64U A77U", "self-cleavage": 0.48}, {"variant": "A64U A77G", "self-cleavage": 0.75}, {"variant": "U62C G93U", "self-cleavage": 0.03}, {"variant": "U62C G126C", "self-cleavage": 0.01}, {"variant": "U62C G126U", "self-cleavage": 0.04}, {"variant": "A65C A69U", "self-cleavage": 0.36}, {"variant": "U62A U143C", "self-cleavage": 0.05}, {"variant": "U62A U143G", "self-cleavage": 0.08}, {"variant": "U62C U143C", "self-cleavage": 0.06}, {"variant": "U62C U143A", "self-cleavage": 0.06}, {"variant": "A65C U81A", "self-cleavage": 0.02}, {"variant": "A65G A117U", "self-cleavage": 0.04}, {"variant": "A64G U119A", "self-cleavage": 0.32}, {"variant": "U62C C145U", "self-cleavage": 0}, {"variant": "A64G U108C", "self-cleavage": 0.31}, {"variant": "U62C C90U", "self-cleavage": 0.05}, {"variant": "A64G U109C", "self-cleavage": 0.2}, {"variant": "A64G U109A", "self-cleavage": 0.14}, {"variant": "U62C A138U", "self-cleavage": 0.01}, {"variant": "U62C U132A", "self-cleavage": 0.05}, {"variant": "A64U G144A", "self-cleavage": 0.42}, {"variant": "U62C C111A", "self-cleavage": 0.02}, {"variant": "A64C U112C", "self-cleavage": 0.29}, {"variant": "A65G C123G", "self-cleavage": 0.03}, {"variant": "A65G C123U", "self-cleavage": 0.04}, {"variant": "A64G G105A", "self-cleavage": 0.03}, {"variant": "U62C C128U", "self-cleavage": 0.03}, {"variant": "C63A U130C", "self-cleavage": 0.05}, {"variant": "U62C C113G", "self-cleavage": 0.07}, {"variant": "A64G U134A", "self-cleavage": 0.24}, {"variant": "C63U U87A", "self-cleavage": 0.07}, {"variant": "A64G U73C", "self-cleavage": 0.17}, {"variant": "A64G U73A", "self-cleavage": 0.19}, {"variant": "U62C U102A", "self-cleavage": 0.04}, {"variant": "A64U U96C", "self-cleavage": 0.04}, {"variant": "A64G A69C", "self-cleavage": 0}, {"variant": "A64G A69G", "self-cleavage": 0.07}, {"variant": "A64G A69U", "self-cleavage": 0.08}, {"variant": "U62C U112C", "self-cleavage": 0.05}, {"variant": "A64U A117U", "self-cleavage": 0.49}, {"variant": "A65G U109C", "self-cleavage": 0.06}, {"variant": "A65G U109G", "self-cleavage": 0.23}, {"variant": "U62G U73C", "self-cleavage": 0}, {"variant": "A65C A129G", "self-cleavage": 0.09}, {"variant": "A65U A77G", "self-cleavage": 0.3}, {"variant": "A65G A141G", "self-cleavage": 0.07}, {"variant": "A64G C98U", "self-cleavage": 0.11}, {"variant": "A65C G80A", "self-cleavage": 0.02}, {"variant": "A65U U87A", "self-cleavage": 0.25}, {"variant": "A65U U87C", "self-cleavage": 0.04}, {"variant": "A64U U104A", "self-cleavage": 0.29}, {"variant": "A65G G75A", "self-cleavage": 0.03}, {"variant": "A64G U87C", "self-cleavage": 0.06}, {"variant": "A65U U102C", "self-cleavage": 0.3}, {"variant": "A65U U102A", "self-cleavage": 0.17}, {"variant": "A65U A78G", "self-cleavage": 0.16}, {"variant": "A65U A78U", "self-cleavage": 0.2}, {"variant": "U62C C66A", "self-cleavage": 0.02}, {"variant": "A64G G127A", "self-cleavage": 0.18}, {"variant": "A64G G127U", "self-cleavage": 0.21}, {"variant": "A64G G86A", "self-cleavage": 0.08}, {"variant": "A64G A107G", "self-cleavage": 0.33}, {"variant": "A64G A141C", "self-cleavage": 0.11}, {"variant": "A64G A141U", "self-cleavage": 0.17}, {"variant": "A65G U96A", "self-cleavage": 0.07}, {"variant": "C63U A107G", "self-cleavage": 0.45}, {"variant": "C63U U132A", "self-cleavage": 0.46}, {"variant": "C63U U132C", "self-cleavage": 0.35}, {"variant": "A64G A78U", "self-cleavage": 0.23}, {"variant": "C63U A79G", "self-cleavage": 0.58}, {"variant": "U62C A65U", "self-cleavage": 0.01}, {"variant": "A65G C71G", "self-cleavage": 0.05}, {"variant": "A64G U102A", "self-cleavage": 0.15}, {"variant": "U62A U85G", "self-cleavage": 0}, {"variant": "A64G U104C", "self-cleavage": 0.59}, {"variant": "A64U G137A", "self-cleavage": 0.24}, {"variant": "U62C U96C", "self-cleavage": 0.06}, {"variant": "A65C G74U", "self-cleavage": 0.03}, {"variant": "U62C C103A", "self-cleavage": 0.04}, {"variant": "U62C A107U", "self-cleavage": 0.06}, {"variant": "A65G G144A", "self-cleavage": 0.1}, {"variant": "A64G U85C", "self-cleavage": 0.1}, {"variant": "A64G U85A", "self-cleavage": 0.07}, {"variant": "A64G U143C", "self-cleavage": 0.26}, {"variant": "U62G U115G", "self-cleavage": 0.14}, {"variant": "A64G G106U", "self-cleavage": 0.15}, {"variant": "U62C A136U", "self-cleavage": 0.05}, {"variant": "U62C A136C", "self-cleavage": 0.1}, {"variant": "A64U U112C", "self-cleavage": 0.44}, {"variant": "A64G C99U", "self-cleavage": 0.18}, {"variant": "A65U C71U", "self-cleavage": 0.05}, {"variant": "A64G A140G", "self-cleavage": 0.26}, {"variant": "U62C C98U", "self-cleavage": 0.02}, {"variant": "U62C C98A", "self-cleavage": 0.03}, {"variant": "U62C G137A", "self-cleavage": 0.17}, {"variant": "A65G A142G", "self-cleavage": 0.06}, {"variant": "C63A U104C", "self-cleavage": 0.07}, {"variant": "A65G", "self-cleavage": 0.06}, {"variant": "A65U", "self-cleavage": 0.17}, {"variant": "A65C", "self-cleavage": 0.04}, {"variant": "A65G U85G", "self-cleavage": 0.07}, {"variant": "A64G G144A", "self-cleavage": 0.21}, {"variant": "U62C G74A", "self-cleavage": 0.04}, {"variant": "A65U U85C", "self-cleavage": 0.06}, {"variant": "A65U U85G", "self-cleavage": 0.1}]}]}
